The source of these data is paper PMC4073888.

The target of this data set is T1, 6xHis-NELF-E-mOrange (Drosophila, UniProt P92204 1-280).
T1 sequence: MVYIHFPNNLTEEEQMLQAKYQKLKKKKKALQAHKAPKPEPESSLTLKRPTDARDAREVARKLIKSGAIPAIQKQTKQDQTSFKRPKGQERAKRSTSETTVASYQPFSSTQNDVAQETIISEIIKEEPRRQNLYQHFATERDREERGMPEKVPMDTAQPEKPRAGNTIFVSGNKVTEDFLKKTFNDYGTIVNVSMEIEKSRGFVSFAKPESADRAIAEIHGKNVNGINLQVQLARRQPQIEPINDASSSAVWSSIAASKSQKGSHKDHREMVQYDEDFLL
Briefly: HiTS-RAP fluorescence.

B1: NELFapt A39U_U61A (structured_RNA)
RNA: GGGAAUGGAUCCACAUCUACGAAUUCCCAACGACUGCCGAGCGAGAUUACGCUUGAGCGCCCCUCUGAGGAUGCCCACGGGCGAUAGGGGCACGGCUUCACUGCAGACUUGACGAAGCUU
Regarding B1, the binding result is “binds”.
